According to patent EP4755449A2 (CHUGAI SEIYAKU KABUSHIKI KAISHA, dated 2026):
Numbering of substitutions follows the chain as printed. Where two headings read alike, the source gives them in different places.

Experiments:
[1] = target: T1, Human GDF11 with Flag-tag on N-terminus (human, UniProt O95390 11-407); experiment: ELISA, biotinylated antigen on streptavidin plate
T1 construct: processing of the expressed protein not described; also called Flag-hGDF11; human latent GDF11
T1 sequence: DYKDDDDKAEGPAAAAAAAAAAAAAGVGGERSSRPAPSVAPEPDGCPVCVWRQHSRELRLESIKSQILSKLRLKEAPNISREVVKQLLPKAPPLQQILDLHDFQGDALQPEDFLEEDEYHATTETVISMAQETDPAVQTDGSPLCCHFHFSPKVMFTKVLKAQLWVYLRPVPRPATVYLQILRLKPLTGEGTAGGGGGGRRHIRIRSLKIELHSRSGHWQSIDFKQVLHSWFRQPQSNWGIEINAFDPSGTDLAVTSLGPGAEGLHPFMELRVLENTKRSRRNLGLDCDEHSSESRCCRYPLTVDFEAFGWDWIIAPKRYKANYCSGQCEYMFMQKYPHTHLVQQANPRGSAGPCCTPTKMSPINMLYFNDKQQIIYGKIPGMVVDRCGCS

mature myostatin = target: T2, mature myostatin (human (mature form 100% identical in …, UniProt O08689 268-376 (mouse entry))); experiment: ELISA, biotinylated antigen on streptavidin plate
T2 construct: biotinylated in the ELISA; also called myostatin mature form; active myostatin
T2 sequence: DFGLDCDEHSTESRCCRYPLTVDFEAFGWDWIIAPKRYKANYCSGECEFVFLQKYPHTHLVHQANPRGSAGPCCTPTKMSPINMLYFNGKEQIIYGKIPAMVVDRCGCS

human latent myostatin [2] = target: T3, human latent myostatin (human, UniProt O14793 25-266; O14793 267-375); experiment: SPR 37C pH7.4
T3 construct: non-covalent complex of two propeptides and the mature homodimer; also called human myostatin latent form
T3 sequence 1: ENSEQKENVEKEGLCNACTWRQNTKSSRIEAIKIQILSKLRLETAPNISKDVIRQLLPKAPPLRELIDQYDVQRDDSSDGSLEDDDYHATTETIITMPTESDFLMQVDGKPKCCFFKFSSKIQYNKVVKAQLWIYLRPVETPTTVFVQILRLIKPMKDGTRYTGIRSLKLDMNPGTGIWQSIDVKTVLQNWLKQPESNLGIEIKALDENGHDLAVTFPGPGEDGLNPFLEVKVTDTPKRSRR
T3 sequence 2: T2 sequence

[3] = target: T4, cynomolgus monkey latent myostatin (cynomolgus monkey, UniProt Q95J86 25-266; Q95J86 267-375, limits assumed); experiment: SPR 37C pH7.4
T4 construct: also called cyno latent myostatin
T4 sequence 1: T3 sequence 1 with V52A
T4 sequence 2: T2 sequence

mouse latent myostatin = target: T5, mouse latent myostatin (mouse, UniProt O08689 26-267; O08689 268-376); experiment: SPR 37C pH7.4
T5 sequence 1: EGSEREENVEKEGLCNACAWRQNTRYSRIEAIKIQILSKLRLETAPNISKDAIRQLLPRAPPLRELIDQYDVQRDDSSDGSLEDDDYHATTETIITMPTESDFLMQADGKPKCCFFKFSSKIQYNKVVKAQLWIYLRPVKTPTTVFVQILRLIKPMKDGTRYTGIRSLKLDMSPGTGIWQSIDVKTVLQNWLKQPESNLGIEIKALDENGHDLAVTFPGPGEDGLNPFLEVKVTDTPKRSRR
T5 sequence 2: T2 sequence

human latent myostatin [4] = target: T3, human latent myostatin; experiment: SPR 37C pH7.4; remark: listed apart in the source

B1: MS_MST1032Ha-G1m/MST1032La-k0MC (antibody, human IgG1, kappa, V domains shown)
VH: QSLEESGGRLVTPGGSLTVTCRVSGIDLSSYDISWVRQAPGKGLEWIGIISYAGSTYYASWAKGRFTISKTSTTVDLKMTSLTTEDTATYFCARGVPAYSTGGDLWGPGTLVTVSS
VL: AQVLTQTASSVSAAVGGTVTINCQSSQSVYDNNWLSWFQQKPGQPPKLLIYWASTLASGVPSRFKGSGSGTQFTLTISDLECDDAATYYCAGGYGGGLYAFGGGTKVEIKR
notes: rabbit/human chimeric; also called MST1032-G1m
In the case of B1, the binding result [1] is reported as “no binding”, the binding result (mature myostatin) is reported as “no binding” and the Kd (human latent myostatin [2]) is reported as 0.0766 nM. For the same binder, the koff (human latent myostatin [2]) was 8.65e-05 s⁻¹, the kon (human latent myostatin [2]) was 1.13e+06 M⁻¹ s⁻¹ and the Kd [3] was 0.0717 nM. For the same binder, the koff [3] was 7.79e-05 s⁻¹, the kon [3] was 1.09e+06 M⁻¹ s⁻¹ and the Kd (mouse latent myostatin) was 0.0579 nM. It also gave a koff (mouse latent myostatin) of 8.16e-05 s⁻¹, a kon (mouse latent myostatin) of 1.41e+06 M⁻¹ s⁻¹ and a Kd (human latent myostatin [4]) of 0.0766 nM. It also gave a koff (human latent myostatin [4]) of 8.65e-05 s⁻¹ and a kon (human latent myostatin [4]) of 1.13e+06 M⁻¹ s⁻¹.
